Source: the Human Domainome abundance scans (Beltran et al. 2025)
± gives the uncertainty stated by the source.

B1: Zinc finger homeobox protein 4, residues 2183 to 2238; numbered along this chain, Q86UP3 (parent)
chain: SSRTRFTDYQLRVLQDFFDTNAYPKDDEIEQLSTVLNLPTRVIVVWFQNARQKARK

Variants of: B1
Assay: abundance fitness (aPCA) (normalised: wild type 0, dead -1); higher = more abundant; growth selection in yeast, the domain comes from the species named
Details: Homo sapiens

Variant | abundance fitness
SSRTRFTDYQLRVLQDFFDTNAYPKDDRIEQLSTVLNLPTRVIVVWFQNARQKARK | -0.25 ± 0.075
SSRTRFTDYQLRVLQDFFDTNAYPKDDEIEQQSTVLNLPTRVIVVWFQNARQKARK | -0.751 ± 0.15
SSRTRFTDYQLRVLQDFFDTNAYPKDDEIEQHSTVLNLPTRVIVVWFQNARQKARK | -1.12 ± 0.29
SSRTRFTDYQLRVLQDFFDTNAYPKDDEIEQLSTVLNLPTRVIVVWFQNARQKQRK | 0.01 ± 0.17
SSRTRFTDYQLRVLQDFFDTNAYPKDDEIEQLSTVLNLPTRVIVVWFQNAVQKARK | -0.043 ± 0.13
SSRTRFTDYQLRVLQDFFDTNAYPKDDEIEQLSTVLNLPTRVIVVWFQNAMQKARK | -0.219 ± 0.23
SSRTRFTDYQLRVFQDFFDTNAYPKDDEIEQLSTVLNLPTRVIVVWFQNARQKARK | -0.433 ± 0.17
SSRTRFTDYQLRVTQDFFDTNAYPKDDEIEQLSTVLNLPTRVIVVWFQNARQKARK | -0.93 ± 0.16
SSRTRFTDYQLRVYQDFFDTNAYPKDDEIEQLSTVLNLPTRVIVVWFQNARQKARK | -1.08 ± 0.33
SSRTRFTYYQLRVLQDFFDTNAYPKDDEIEQLSTVLNLPTRVIVVWFQNARQKARK | -0.662 ± 0.14
SSRTRFTVYQLRVLQDFFDTNAYPKDDEIEQLSTVLNLPTRVIVVWFQNARQKARK | -0.282 ± 0.079
SSRTRFTGYQLRVLQDFFDTNAYPKDDEIEQLSTVLNLPTRVIVVWFQNARQKARK | -0.225 ± 0.078
SSRTRFTLYQLRVLQDFFDTNAYPKDDEIEQLSTVLNLPTRVIVVWFQNARQKARK | -0.229 ± 0.078
SSRTRFTDYQLRVLQDFFDTNAYPKDDEIEQLSNVLNLPTRVIVVWFQNARQKARK | -0.183 ± 0.14
SSRTRFTDYQLRVLQDFFDTNAYPKDDEIEQLSAVLNLPTRVIVVWFQNARQKARK | -0.049 ± 0.084
SSRTRFTDYQLTVLQDFFDTNAYPKDDEIEQLSTVLNLPTRVIVVWFQNARQKARK | -0.066 ± 0.12
SSRTRFTDYQLRVLQDFFDTNAYPKDDEIEQLSTVLNLPTRVIVIWFQNARQKARK | -0.175 ± 0.12
SSRTRFTDYQLRVLQDFFFTNAYPKDDEIEQLSTVLNLPTRVIVVWFQNARQKARK | -0.146 ± 0.19
SSRTRFTDYQLRVLQDFFITNAYPKDDEIEQLSTVLNLPTRVIVVWFQNARQKARK | -0.234 ± 0.17
SSRTRFTDYQLRVLQDFFDTNAYPKDDEIEQLSTVLNLPTRVIQVWFQNARQKARK | -0.052 ± 0.089
SSRTRFTDYQLRVLQDFFDTNAYPKDDEIEQLSTVLNLPTRVIEVWFQNARQKARK | 0.125 ± 0.13
SSRTRFTDYQLRVLQDFFDTNAYPKDDEIEQLSTVLNLPTRVIYVWFQNARQKARK | -0.223 ± 0.093
SSRTRFTDYQLRVLQDFCDTNAYPKDDEIEQLSTVLNLPTRVIVVWFQNARQKARK | -0.139 ± 0.097
SSRTRFTDYQLRVLQDFFDTNAYPKDDEIEQLSTVQNLPTRVIVVWFQNARQKARK | -0.877 ± 0.16

Variant | abundance fitness
SSRTRFTDYQLRVLQDFFDTNAYPKDDEIEQLSTVMNLPTRVIVVWFQNARQKARK | -0.157 ± 0.13
SSRTRFTDYQLRVLQDFFDTNAYPKDDEIEQLSTVTNLPTRVIVVWFQNARQKARK | 0.045 ± 0.081
SSRTRFTDYQLRVLQDFFDTNAYPKDDEIEQLSTVLNLPTRVIVVWFLNARQKARK | -0.441 ± 0.2
SSRTRFTDYQLRVLQDFFDTNAYPKQDEIEQLSTVLNLPTRVIVVWFQNARQKARK | -0.031 ± 0.13
SSRTRFTDYQLRVLQDFFDTNAYPKDVEIEQLSTVLNLPTRVIVVWFQNARQKARK | -0.375 ± 0.3
SSRTRFTDYQLRVLQDFFDTNAYPKDNEIEQLSTVLNLPTRVIVVWFQNARQKARK | 0.001 ± 0.21
SSRTRFTDYQLRVLQDFFDTNAYPKDDEIEQLSTVLNLPNRVIVVWFQNARQKARK | -0.546 ± 0.45
SSRTRFTDYQLRVLQDFFDTNAYPKDDEIEQLSTVLNLPIRVIVVWFQNARQKARK | 0.591 ± 0.32
SSRTRFTDYQLRVLQDFFDTNAYPKDDEIEQLSTVLNLPTRVIVVWFQNARQMARK | 0.119 ± 0.15
SSRTRFTDYQLRVLQDFFDTNAYPKDDEIEQLSTVLNLPTRVIVVWFQNARQSARK | -0.06 ± 0.095
SSRTRFTDYQLRVLQDFFDTNAYPKDDEIEQLSTVLNLPTRVIVVWFQNARQFARK | 0.036 ± 0.15
SSRTRFTDYQLRVLQDFFDTNAYPKDDEIEQLSTVLNLPTRVIVVWFQWARQKARK | -0.352 ± 0.12
GSRTRFTDYQLRVLQDFFDTNAYPKDDEIEQLSTVLNLPTRVIVVWFQNARQKARK | 0.276 ± 0.15
SSRTRFTDYQLRVLQDFFDTCAYPKDDEIEQLSTVLNLPTRVIVVWFQNARQKARK | 0.346 ± 0.16
SSRTRFTDYQLRVLQDFFDTFAYPKDDEIEQLSTVLNLPTRVIVVWFQNARQKARK | -0.451 ± 0.17
SSRTRFTDYQLRVLQDFFDTHAYPKDDEIEQLSTVLNLPTRVIVVWFQNARQKARK | -0.219 ± 0.15
SSRTRGTDYQLRVLQDFFDTNAYPKDDEIEQLSTVLNLPTRVIVVWFQNARQKARK | -0.335 ± 0.092
SSRTRFTDYQLRVLQDFFDTNAYPKDDEIEQLGTVLNLPTRVIVVWFQNARQKARK | -0.23 ± 0.22
SSRTRFTDYQLRVLQDFFDTNAYPKDDEIEQLSTVLNLPTRVIVVPFQNARQKARK | -0.656 ± 0.36
SSRTRFTDYQLRVLQDFFDTNAYPKDDEIEQLSTVLNLPTRVIVVVFQNARQKARK | -0.803 ± 0.18
SSRTRFTDYWLRVLQDFFDTNAYPKDDEIEQLSTVLNLPTRVIVVWFQNARQKARK | -0.826 ± 0.13
SSRTRFTDYFLRVLQDFFDTNAYPKDDEIEQLSTVLNLPTRVIVVWFQNARQKARK | -0.928 ± 0.12
SSRTRFTDYTLRVLQDFFDTNAYPKDDEIEQLSTVLNLPTRVIVVWFQNARQKARK | -0.176 ± 0.076
